{
  "source": "patent US7067277B1",
  "about": "“Chimeric G proteins and uses thereof” (H. Lundbeck A/S, priority 1999, dated 2006)",
  "key": {"h D1": {"molecular_target": "T1, h D1 (Homo sapiens, UniProt P21728)", "T1 construct": "expressed in transfected cells; host or cells: COS-7", "T1 sequence (P21728 whole entry)": "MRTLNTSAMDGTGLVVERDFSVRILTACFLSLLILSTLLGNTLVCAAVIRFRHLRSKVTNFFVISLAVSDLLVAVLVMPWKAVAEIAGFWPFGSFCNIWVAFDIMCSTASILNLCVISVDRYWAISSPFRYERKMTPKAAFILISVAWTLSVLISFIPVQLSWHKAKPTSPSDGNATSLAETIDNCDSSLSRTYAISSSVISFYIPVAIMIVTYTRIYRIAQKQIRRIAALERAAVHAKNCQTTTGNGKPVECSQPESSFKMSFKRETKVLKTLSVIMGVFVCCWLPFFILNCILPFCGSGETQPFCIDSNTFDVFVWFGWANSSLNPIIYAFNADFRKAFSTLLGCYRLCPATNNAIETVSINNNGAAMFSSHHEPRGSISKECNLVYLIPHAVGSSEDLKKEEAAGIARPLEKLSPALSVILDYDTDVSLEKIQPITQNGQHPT", "test": "Calcium mobilization (FLIPR, Fluo-3) in transfected COS-7 cells", "format": "cell-based", "conditions": "h D1 + chimera in COS-7; agonist DA, max 100 μM", "experimental": "(§1) COS-7 cells were cultured in 225 cm^2 flasks in Dulbecco's Modified Eagle Medium (DMEM) with supplements (10% bovine calf serum, 4 mM glutamine, 100 units/ml penicillin and 100 μg/ml streptomycin) at 37° C., 5% CO2. Stock plates of COS-7 cells were trypsinized and split 1:6 every 3–4 days.\nFor evaluating the function of a single chimeric G protein, the standard cDNA transfection ratio was 1:1 (10 μg GPCR cDNA and 10 μg chimeric G protein cDNA). For evaluating the function of a mixture of chimeric G proteins, the standard cDNA transfection ratio was 8:1:1 (16 μg GPCR cDNA, 2 μg Gαq/z cDNA, 2 μg Gαq/s cDNA).\nTwenty four hours after transient transfection, COS-7 cells were seeded into 96-well black wall microtiter plates coated with poly-D-lysine for assay the following day. […] After excess dye was discarded, cells were washed in assay buffer and layered with a final volume equal to 100 μl/well. Basal fluorescence was monitored in a fluorometric imaging plate reader (FLIPR™, Molecular Devices) with an excitation wavelength of 488 nm and an emission range of 500 to 560 nm. Laser excitation energy was adjusted so that basal fluorescence readings were approximately 10,000 relative fluorescent units. Cells were stimulated with agonists diluted in assay buffer (50 μl), and relative fluorescent units were measured at defined intervals (exposure=0.4 sec) over a 3 min period at room temperature. Maximum change in fluorescence was calculated for each well. Concentration-response curves derived from the maximum change in fluorescence were analyzed by nonlinear regression (Hill equation)."}, "[1]": {"test_system": "panel of 7 Gαs-coupling receptors", "test": "Detection rate in COS-7 calcium mobilization over Gαs-coupling GPCR", "format": "cell-based, human", "conditions": "COS-7, stimulated with appropriate agonists", "experimental": "as §1\nGPCR and chimeric G protein cDNAs were transiently transfected into COS-7 cells in 150 cm^2 flasks by the DEAE-dextran method (Cullen, 1987), using a total of 20 μg of DNA/˜7×10^6 cells. For evaluating the function of a single chimeric G protein, the standard cDNA transfection ratio was 1:1 (10 μg GPCR cDNA and 10 μg chimeric G protein cDNA). […]\nTwenty four hours after transient transfection, COS-7 cells were seeded into 96-well black wall microtiter plates coated with poly-D-lysine for assay the following day. […] Basal fluorescence was monitored in a fluorometric imaging plate reader (FLIPR™, Molecular Devices) with an excitation wavelength of 488 nm and an emission range of 500 to 560 nm. Laser excitation energy was adjusted so that basal fluorescence readings were approximately 10,000 relative fluorescent units. Cells were stimulated with agonists diluted in assay buffer (50 μl), and relative fluorescent units were measured at defined intervals (exposure=0.4 sec) over a 3 min period at room temperature. Maximum change in fluorescence was calculated for each well. […]"}, "h D5": {"molecular_target": "h D5 (Homo sapiens, UniProt P21918)", "sequence (P21918 whole entry)": "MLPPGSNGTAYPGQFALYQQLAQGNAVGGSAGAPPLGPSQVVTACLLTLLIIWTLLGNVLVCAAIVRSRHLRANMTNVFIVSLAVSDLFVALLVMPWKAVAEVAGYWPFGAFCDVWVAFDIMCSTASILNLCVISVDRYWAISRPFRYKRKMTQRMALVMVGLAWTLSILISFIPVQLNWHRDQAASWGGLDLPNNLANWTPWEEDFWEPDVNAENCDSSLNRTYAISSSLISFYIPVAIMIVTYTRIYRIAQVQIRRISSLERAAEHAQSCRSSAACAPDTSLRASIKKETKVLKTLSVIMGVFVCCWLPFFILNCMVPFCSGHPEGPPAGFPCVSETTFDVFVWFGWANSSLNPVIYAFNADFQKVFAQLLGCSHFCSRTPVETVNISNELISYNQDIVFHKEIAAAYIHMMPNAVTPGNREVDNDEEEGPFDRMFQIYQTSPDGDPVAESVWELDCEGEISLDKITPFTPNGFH", "test": "Calcium mobilization (FLIPR, Fluo-3) in transfected COS-7 cells", "format": "cell-based", "conditions": "h D5 + chimera in COS-7; agonist DA, max 100 μM", "experimental": "as §1\n(§2) GPCR and chimeric G protein cDNAs were transiently transfected into COS-7 cells in 150 cm^2 flasks by the DEAE-dextran method (Cullen, 1987), using a total of 20 μg of DNA/˜7×10^6 cells. For evaluating the function of a single chimeric G protein, the standard cDNA transfection ratio was 1:1 (10 μg GPCR cDNA and 10 μg chimeric G protein cDNA). For evaluating the function of a mixture of chimeric G proteins, the standard cDNA transfection ratio was 8:1:1 (16 μg GPCR cDNA, 2 μg Gαq/z cDNA, 2 μg Gαq/s cDNA).\n(§3) Twenty four hours after transient transfection, COS-7 cells were seeded into 96-well black wall microtiter plates coated with poly-D-lysine for assay the following day. Just prior to assay, culture medium was aspirated and cells were dye-loaded with 4 μM Fluo-3/0.01% pluronic acid in assay buffer composed of Hank's Balanced Salt Solution (138 mM NaCl, 5 mM KCl, 1.3 mM CaCl2, 0.5 mM MgCl2, 0.4 mM MgSO4, 0.3 mM KH2PO4, 0.3 mM Na2HPO4, 5.6 mM glucose) plus 20 mM HEPES (pH 7.4), 0.1% BSA and 2.5 mM probenicid (100 μl/well) for 1 hour in 5% CO2 at 37° C. After excess dye was discarded, cells were washed in assay buffer and layered with a final volume equal to 100 μl/well. Basal fluorescence was monitored in a fluorometric imaging plate reader (FLIPR™, Molecular Devices) with an excitation wavelength of 488 nm and an emission range of 500 to 560 nm. Laser excitation energy was adjusted so that basal fluorescence readings were approximately 10,000 relative fluorescent units. Cells were stimulated with agonists diluted in assay buffer (50 μl), and relative fluorescent units were measured at defined intervals (exposure=0.4 sec) over a 3 min period at room temperature. Maximum change in fluorescence was calculated for each well. Concentration-response curves derived from the maximum change in fluorescence were analyzed by nonlinear regression (Hill equation)."}, "h 5HT4": {"molecular_target": "h 5HT4 (Homo sapiens, UniProt Q13639)", "sequence (Q13639 whole entry)": "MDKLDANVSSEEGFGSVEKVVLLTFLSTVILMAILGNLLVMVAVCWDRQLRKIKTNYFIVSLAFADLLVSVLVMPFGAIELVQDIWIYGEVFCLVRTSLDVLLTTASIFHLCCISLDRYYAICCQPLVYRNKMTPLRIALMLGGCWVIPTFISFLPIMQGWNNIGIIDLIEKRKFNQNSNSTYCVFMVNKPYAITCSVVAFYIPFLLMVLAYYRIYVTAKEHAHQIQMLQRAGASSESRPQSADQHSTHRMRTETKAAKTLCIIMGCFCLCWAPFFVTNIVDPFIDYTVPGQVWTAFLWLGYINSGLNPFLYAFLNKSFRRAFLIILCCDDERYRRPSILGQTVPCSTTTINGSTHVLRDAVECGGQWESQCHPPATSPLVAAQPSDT", "test": "Calcium mobilization (FLIPR, Fluo-3) in transfected COS-7 cells", "format": "cell-based", "conditions": "h 5HT4 + chimera in COS-7; agonist 5HT, max 100 μM", "experimental": "as §1, §2, §3"}, "h β2 adr": {"molecular_target": "h β2 adr (Homo sapiens, UniProt P07550)", "test": "Calcium mobilization (FLIPR, Fluo-3) in transfected COS-7 cells", "format": "cell-based", "conditions": "h β2 adr + chimera in COS-7; agonist NE, max 100 μM", "experimental": "as §1, §2, §3"}, "h 5HT6": {"molecular_target": "h 5HT6 (Homo sapiens, UniProt P50406)", "sequence (P50406 whole entry)": "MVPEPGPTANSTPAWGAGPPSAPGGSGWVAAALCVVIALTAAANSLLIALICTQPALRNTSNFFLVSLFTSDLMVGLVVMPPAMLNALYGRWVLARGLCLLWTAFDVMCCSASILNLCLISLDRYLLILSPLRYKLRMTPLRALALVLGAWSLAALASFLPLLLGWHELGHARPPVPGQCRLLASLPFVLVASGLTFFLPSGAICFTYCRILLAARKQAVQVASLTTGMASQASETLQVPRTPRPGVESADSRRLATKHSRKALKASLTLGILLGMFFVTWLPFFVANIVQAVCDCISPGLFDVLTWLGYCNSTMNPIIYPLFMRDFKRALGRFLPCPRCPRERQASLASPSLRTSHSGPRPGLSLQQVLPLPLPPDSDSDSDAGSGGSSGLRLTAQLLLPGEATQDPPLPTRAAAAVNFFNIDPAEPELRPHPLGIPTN", "test": "Calcium mobilization (FLIPR, Fluo-3) in transfected COS-7 cells", "format": "cell-based", "conditions": "h 5HT6 + chimera in COS-7; agonist 5HT, max 100 μM", "experimental": "as §1, §2, §3"}, "h 5HT7": {"molecular_target": "h 5HT7 (Homo sapiens, UniProt P34969)", "sequence (P34969 whole entry)": "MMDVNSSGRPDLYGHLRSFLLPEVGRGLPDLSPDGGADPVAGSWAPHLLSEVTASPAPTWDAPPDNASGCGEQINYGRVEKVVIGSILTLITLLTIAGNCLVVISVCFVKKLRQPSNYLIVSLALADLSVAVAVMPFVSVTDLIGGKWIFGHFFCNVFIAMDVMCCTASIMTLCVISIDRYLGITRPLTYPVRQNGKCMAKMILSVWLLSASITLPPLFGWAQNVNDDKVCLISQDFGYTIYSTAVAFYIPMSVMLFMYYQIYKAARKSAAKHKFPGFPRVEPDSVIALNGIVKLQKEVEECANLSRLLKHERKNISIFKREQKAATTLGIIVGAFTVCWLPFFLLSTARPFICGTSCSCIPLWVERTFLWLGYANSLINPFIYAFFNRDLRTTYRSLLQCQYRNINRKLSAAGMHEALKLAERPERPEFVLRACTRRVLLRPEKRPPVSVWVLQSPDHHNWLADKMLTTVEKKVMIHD", "test": "Calcium mobilization (FLIPR, Fluo-3) in transfected COS-7 cells", "format": "cell-based", "conditions": "h 5HT7 + chimera in COS-7; agonist 5HT, max 100 μM", "experimental": "as §1, §2, §3"}, "h GLP-1": {"molecular_target": "h GLP-1 (Homo sapiens, UniProt P43220)", "sequence (P43220 24-463)": "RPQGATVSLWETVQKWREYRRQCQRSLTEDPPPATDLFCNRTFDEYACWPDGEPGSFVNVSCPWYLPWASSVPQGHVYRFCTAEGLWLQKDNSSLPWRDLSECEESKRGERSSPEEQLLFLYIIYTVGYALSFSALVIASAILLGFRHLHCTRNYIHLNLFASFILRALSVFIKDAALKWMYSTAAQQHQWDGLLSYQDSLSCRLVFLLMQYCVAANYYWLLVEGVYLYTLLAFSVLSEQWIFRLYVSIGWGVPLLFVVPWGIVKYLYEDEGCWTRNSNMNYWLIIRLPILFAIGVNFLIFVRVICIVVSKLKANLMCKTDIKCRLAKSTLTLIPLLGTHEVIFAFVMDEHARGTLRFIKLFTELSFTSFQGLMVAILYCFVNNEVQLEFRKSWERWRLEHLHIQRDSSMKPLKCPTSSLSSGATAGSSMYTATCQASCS", "test": "Calcium mobilization (FLIPR, Fluo-3) in transfected COS-7 cells", "format": "cell-based", "conditions": "h GLP-1 + chimera in COS-7; agonist GLP-1, max 10 μM", "experimental": "as §1, §2, §3"}},
  "data": [
    {"molecule": "cGαq/s9: C. elegans Gαq backbone with 9 C-terminal amino acids of Gαs (SEQ ID NO: 3) (protein, C. elegans) MACCLSEEAREQKRINQEIEKQLQRDKRNARRELKLLLLGTGESGKSTFIKQMRIIHGQGYSEEDKRAHIRLVYQNVFMAIQSMIRAMDTLDIKFGNESEELQEKAAVVREVDFESVTSFEEPYVSYIKELWEDSGIQECYDRRREYQLTDSAKYYLSDLRRLAVPDYLPTEQDILRVRVPTTGIIEYPFDLEQIIFRMVDVGGQRSERRKWIHCFENVTSIMFLVALSEYDQVLVECDNENRMEESKALFRTIITYPWFTNSSVILFLNKKDLLEEKILYSHLADYFPEYDGPPRDPIAAREFILKMFVDLNPDADKIIYSHFTCATDTENIRFVFAAVKDTILQMHLRQYELL", "values": [
      {"measurement": "MAXIMAL SIGNAL (FLUORESCENCE UNITS)", "setting": "h D1", "result": 8692, "unit": "fluorescence units"},
      {"measurement": "Gαs-coupling receptors generating positive responses (>500 fluorescence units) / receptors tested", "setting": "[1]", "result": "6/7"},
      {"measurement": "percent of Gαs-coupling receptors generating positive responses (>500 fluorescence units)", "setting": "[1]", "result": 81, "unit": "%"},
      {"measurement": "MAXIMAL SIGNAL (FLUORESCENCE UNITS)", "setting": "h D5", "result": 1870, "unit": "fluorescence units"},
      {"measurement": "MAXIMAL SIGNAL (FLUORESCENCE UNITS)", "setting": "h 5HT4", "result": 1701, "unit": "fluorescence units"},
      {"measurement": "MAXIMAL SIGNAL (FLUORESCENCE UNITS)", "setting": "h β2 adr", "result": 3106, "unit": "fluorescence units"},
      {"measurement": "MAXIMAL SIGNAL (FLUORESCENCE UNITS)", "setting": "h 5HT6", "result": 1639, "unit": "fluorescence units"},
      {"measurement": "MAXIMAL SIGNAL (FLUORESCENCE UNITS)", "setting": "h 5HT7", "result": 387, "unit": "fluorescence units"},
      {"measurement": "MAXIMAL SIGNAL (FLUORESCENCE UNITS)", "setting": "h GLP-1", "result": 2461, "unit": "fluorescence units"}
    ]}
  ]
}
